# Molecular target: extracellular matrix (BD Matrigel)
# Assay: ECL on Matrigel-coated plate, relative to MRAH-G1d/MRAL-k0
row,Binder,ECM binding ratio (standard = 1)
1,"TR01H040-E2702GsKsc/H0610-E2704sEpsc/L0206-k0 (bispecific antibody, human IgG4 S228P, kappa, N297A) heavy 1: QVQLVESGGGLVQPGRSLRLSCAASGFTFSNAWMHWVRQAPGKGLEWVAQIKDKSQNYATYYAESVKGRFTISRADSKNSIYLQMNSLKTEDTAVYYCRYVHYSASYGVDAWGQGTTVTVSSASTKGPSVFPLAPCSRSTSESTAALGCLVKDYFPEPVTVSWNSGALTSGVHTFPAVLQSSGLYSLSSVVTVPSSSLGTKTYTCNVDHKPSNTKVDKRVESKYGPPCPPCPAPEFRGGPKVFLFPPKPKDTLMISRTPEVTCVVVDVSQEDPEVQFNWYVDGVEVHNAKTKPREEQFASTYRVVSVLTVLHQDWLNGKEYKCKVSNKGLPSSIEKTISKAKGQPREPQVYTLPPSQKEMTKNQVSLTCLVKGFYPSDIAVEWESNGQPENNYKTTPPVLDSDGSFFLYSKLTVDKSRWQEGNVFSCSVMHEALHNRYTQKSLSLSP heavy 2: QVQLVQSGAEVKKPGASVKVSCKASGYTFTDYEMHWIRQPPGQGLEWIGAIDGKTPDTAYSQKFKGRVTLTADKSTSTAYMELSSLTSEDTAVYYCTRFYSYTYWGQGTLVTVSSASTKGPSVFPLAPCSRSTSESTAALGCLVKDYFPEPVTVSWNSGALTSGVHTFPAVLQSSGLYSLSSVVTVPSSSLGTQTYTCNVDHKPSNTKVDKRVESKYGPPCPPCPAPEFRGGPKVFLFPPKPKDTLMISRTPEVTCVVVDVSQEDPEVQFNWYVDGVEVHNAKTKPREEQFASTYRVVSVLTVLHQDWLNGKEYKCKVSNKGLPSSIEKTISKAKGQPREPQVYTLPPSQEEMTKNQVSLTCLVKGFYPSDIAVEWESNGQPENNYKTTPPVLDSDGSFFLYSKLTVDKSRWQEGNVFSCSVMHEALHNHYTQESLSLSP light: DIVMTQSPLSLPVTPGEPASISCRSSQSPVHSNRNTYLHWYQQKPGQAPRLLIYKVSNRFSGVPDRFSGSGSGTDFTLKISRVEAEDVGVYYCYQGTQVPYTFGQGTKLEIKRTVAAPSVFIFPPSDEQLKSGTASVVCLLNNFYPREAKVQWKVDNALQSGNSQESVTEQDSKDSTYSLSSTLTLSKADYEKHKVYACEVTHQGLSSPVTKSFNRGEC",15.4
2,"TR01H040-E2702GsKsc/H0610-E2704sEpsc/L0209-k0 (bispecific antibody, human IgG4 S228P, kappa, N297A) heavy 1: QVQLVESGGGLVQPGRSLRLSCAASGFTFSNAWMHWVRQAPGKGLEWVAQIKDKSQNYATYYAESVKGRFTISRADSKNSIYLQMNSLKTEDTAVYYCRYVHYSASYGVDAWGQGTTVTVSSASTKGPSVFPLAPCSRSTSESTAALGCLVKDYFPEPVTVSWNSGALTSGVHTFPAVLQSSGLYSLSSVVTVPSSSLGTKTYTCNVDHKPSNTKVDKRVESKYGPPCPPCPAPEFRGGPKVFLFPPKPKDTLMISRTPEVTCVVVDVSQEDPEVQFNWYVDGVEVHNAKTKPREEQFASTYRVVSVLTVLHQDWLNGKEYKCKVSNKGLPSSIEKTISKAKGQPREPQVYTLPPSQKEMTKNQVSLTCLVKGFYPSDIAVEWESNGQPENNYKTTPPVLDSDGSFFLYSKLTVDKSRWQEGNVFSCSVMHEALHNRYTQKSLSLSP heavy 2: QVQLVQSGAEVKKPGASVKVSCKASGYTFTDYEMHWIRQPPGQGLEWIGAIDGKTPDTAYSQKFKGRVTLTADKSTSTAYMELSSLTSEDTAVYYCTRFYSYTYWGQGTLVTVSSASTKGPSVFPLAPCSRSTSESTAALGCLVKDYFPEPVTVSWNSGALTSGVHTFPAVLQSSGLYSLSSVVTVPSSSLGTQTYTCNVDHKPSNTKVDKRVESKYGPPCPPCPAPEFRGGPKVFLFPPKPKDTLMISRTPEVTCVVVDVSQEDPEVQFNWYVDGVEVHNAKTKPREEQFASTYRVVSVLTVLHQDWLNGKEYKCKVSNKGLPSSIEKTISKAKGQPREPQVYTLPPSQEEMTKNQVSLTCLVKGFYPSDIAVEWESNGQPENNYKTTPPVLDSDGSFFLYSKLTVDKSRWQEGNVFSCSVMHEALHNHYTQESLSLSP light: DIVMTQSPLSLPVTPGEPASISCRSSQSPVHSNRNTYIHWYQQKPGQAPRLLIYKVSNRFSGVPDRFSGSGSGTDFTLKISRVEAEDVGVYYCYQGTQVPYTFGQGTKLEIKRTVAAPSVFIFPPSDEQLKSGTASVVCLLNNFYPREAKVQWKVDNALQSGNSQESVTEQDSKDSTYSLSSTLTLSKADYEKHKVYACEVTHQGLSSPVTKSFNRGEC",7.4
3,"TR01H040-E2702GsKsc/H0610-E2704sEpsc/L0204-k0 (bispecific antibody, human IgG4 S228P, kappa, N297A) heavy 1: QVQLVESGGGLVQPGRSLRLSCAASGFTFSNAWMHWVRQAPGKGLEWVAQIKDKSQNYATYYAESVKGRFTISRADSKNSIYLQMNSLKTEDTAVYYCRYVHYSASYGVDAWGQGTTVTVSSASTKGPSVFPLAPCSRSTSESTAALGCLVKDYFPEPVTVSWNSGALTSGVHTFPAVLQSSGLYSLSSVVTVPSSSLGTKTYTCNVDHKPSNTKVDKRVESKYGPPCPPCPAPEFRGGPKVFLFPPKPKDTLMISRTPEVTCVVVDVSQEDPEVQFNWYVDGVEVHNAKTKPREEQFASTYRVVSVLTVLHQDWLNGKEYKCKVSNKGLPSSIEKTISKAKGQPREPQVYTLPPSQKEMTKNQVSLTCLVKGFYPSDIAVEWESNGQPENNYKTTPPVLDSDGSFFLYSKLTVDKSRWQEGNVFSCSVMHEALHNRYTQKSLSLSP heavy 2: QVQLVQSGAEVKKPGASVKVSCKASGYTFTDYEMHWIRQPPGQGLEWIGAIDGKTPDTAYSQKFKGRVTLTADKSTSTAYMELSSLTSEDTAVYYCTRFYSYTYWGQGTLVTVSSASTKGPSVFPLAPCSRSTSESTAALGCLVKDYFPEPVTVSWNSGALTSGVHTFPAVLQSSGLYSLSSVVTVPSSSLGTQTYTCNVDHKPSNTKVDKRVESKYGPPCPPCPAPEFRGGPKVFLFPPKPKDTLMISRTPEVTCVVVDVSQEDPEVQFNWYVDGVEVHNAKTKPREEQFASTYRVVSVLTVLHQDWLNGKEYKCKVSNKGLPSSIEKTISKAKGQPREPQVYTLPPSQEEMTKNQVSLTCLVKGFYPSDIAVEWESNGQPENNYKTTPPVLDSDGSFFLYSKLTVDKSRWQEGNVFSCSVMHEALHNHYTQESLSLSP light: DIVMTQSPLSLPVTPGEPASISCRSSQSPVHSNRNTYLHWYQQKPGQAPRLLIYKVSNRFRGVPDRFSGSGSGTDFTLKISRVEAEDVGVYYCGQGTQVPYTFGQGTKLEIKRTVAAPSVFIFPPSDEQLKSGTASVVCLLNNFYPREAKVQWKVDNALQSGNSQESVTEQDSKDSTYSLSSTLTLSKADYEKHKVYACEVTHQGLSSPVTKSFNRGEC",4.4

# Continued, values first:
row,ECM binding ratio (standard = 1),Binder
1,2.5,"TR01H113-E2702GsKsc/GCH065-E2704sEpsc/L0011-k0 (bispecific antibody, human IgG4 S228P, kappa, N297A) heavy 1: QVQLVESGGGVVQPGGSLRLSCAASGFTFSNAWMHWVRQAPGKGLEWVAQIKDKSQNYATYVAESVKGRFTISRADSKNSIYLQMNSLKTEDTAVYYCRYVHYAAGYGVDIWGQGTTVTVSSASTKGPSVFPLAPCSRSTSESTAALGCLVKDYFPEPVTVSWNSGALTSGVHTFPAVLQSSGLYSLSSVVTVPSSSLGTKTYTCNVDHKPSNTKVDKRVESKYGPPCPPCPAPEFRGGPKVFLFPPKPKDTLMISRTPEVTCVVVDVSQEDPEVQFNWYVDGVEVHNAKTKPREEQFASTYRVVSVLTVLHQDWLNGKEYKCKVSNKGLPSSIEKTISKAKGQPREPQVYTLPPSQKEMTKNQVSLTCLVKGFYPSDIAVEWESNGQPENNYKTTPPVLDSDGSFFLYSKLTVDKSRWQEGNVFSCSVMHEALHNRYTQKSLSLSP heavy 2: QVQLVQSGAEVKKPGASVTVSCKASGYTFTDYEMHWIRQPPGEGLEWIGAIDGPTPDTAYSEKFKGRVTLTADKSTSTAYMELSSLTSEDTAVYYCTRFYSYTYWGQGTLVTVSSASTKGPSVFPLAPCSRSTSESTAALGCLVKDYFPEPVTVSWNSGALTSGVHTFPAVLQSSGLYSLSSVVTVPSSSLGTQTYTCNVDHKPSNTKVDKRVESKYGPPCPPCPAPEFRGGPKVFLFPPKPKDTLMISRTPEVTCVVVDVSQEDPEVQFNWYVDGVEVHNAKTKPREEQFASTYRVVSVLTVLHQDWLNGKEYKCKVSNKGLPSSIEKTISKAKGQPREPQVYTLPPSQEEMTKNQVSLTCLVKGFYPSDIAVEWESNGQPENNYKTTPPVLDSDGSFFLYSKLTVDKSRWQEGNVFSCSVMHEALHNHYTQESLSLSP light: DIVMTQSPLSLPVTPGEPASISCRSSQPLVHSNRNTYLHWYQQKPGQAPRLLIYKVSNRFSGVPDRFSGSGSGTDFTLKISRVEAEDVGVYYCGQGTQVPYTFGQGTKLEIKRTVAAPSVFIFPPSDEQLKSGTASVVCLLNNFYPREAKVQWKVDNALQSGNSQESVTEQDSKDSTYSLSSTLTLSKADYEKHKVYACEVTHQGLSSPVTKSFNRGEC"
2,3.3,"TR01H067-E2702GsKsc/GCH054-E2704sEpsc/L0212-k0 (bispecific antibody, human IgG4 S228P, kappa, N297A) heavy 1: QVQLVESGGGLVQPGRSLRLSCAASGFTFSNAWMHWVRQAPGKGLEWVAQIKDKSQNYATYYAESVKGRFTISRDDSKNSLYLQMNSLKTEDTAVYYCRYVHYAASYGVDAWGQGTTVTVSSASTKGPSVFPLAPCSRSTSESTAALGCLVKDYFPEPVTVSWNSGALTSGVHTFPAVLQSSGLYSLSSVVTVPSSSLGTKTYTCNVDHKPSNTKVDKRVESKYGPPCPPCPAPEFRGGPKVFLFPPKPKDTLMISRTPEVTCVVVDVSQEDPEVQFNWYVDGVEVHNAKTKPREEQFASTYRVVSVLTVLHQDWLNGKEYKCKVSNKGLPSSIEKTISKAKGQPREPQVYTLPPSQKEMTKNQVSLTCLVKGFYPSDIAVEWESNGQPENNYKTTPPVLDSDGSFFLYSKLTVDKSRWQEGNVFSCSVMHEALHNRYTQKSLSLSP heavy 2: QVQLVQSGAEVKKPGASVTVSCKASGYTFTDYEMHWIRQPPGEGLEWIGAIDGETPDTAYSEKFKGRVTLTADKSTSTAYMELSSLTSEDTAVYYCTRFYSYTYWGQGTLVTVSSASTKGPSVFPLAPCSRSTSESTAALGCLVKDYFPEPVTVSWNSGALTSGVHTFPAVLQSSGLYSLSSVVTVPSSSLGTQTYTCNVDHKPSNTKVDKRVESKYGPPCPPCPAPEFRGGPKVFLFPPKPKDTLMISRTPEVTCVVVDVSQEDPEVQFNWYVDGVEVHNAKTKPREEQFASTYRVVSVLTVLHQDWLNGKEYKCKVSNKGLPSSIEKTISKAKGQPREPQVYTLPPSQEEMTKNQVSLTCLVKGFYPSDIAVEWESNGQPENNYKTTPPVLDSDGSFFLYSKLTVDKSRWQEGNVFSCSVMHEALHNHYTQESLSLSP light: DIVMTQSPLSLPVTPGEPASISCRPSQSPVHSNRNTYLHWYQQKPGQAPRLLIYKVSNRFSGVPDRFSGSGSGTDFTLKISRVEAEDVGVYYCYQGTQVPYTFGQGTKLEIKRTVAAPSVFIFPPSDEQLKSGTASVVCLLNNFYPREAKVQWKVDNALQSGNSQESVTEQDSKDSTYSLSSTLTLSKADYEKHKVYACEVTHQGLSSPVTKSFNRGEC"

# Source: patent publication US20210388110A1
